Legend:
[1] = molecular target: LDL receptor-related protein 1 (LRP1), purified from human placenta (human) (UniProt Q07954); assay: SPR equilibrium KD relative to I91L PAI-1
[2] = molecular target: LDL receptor-related protein 1 (LRP1), purified from human placenta (human) (UniProt Q07954); assay: SPR equilibrium analysis, LRP1 immobilised

UniProt Q07954, sequence (Q07954 20-4544): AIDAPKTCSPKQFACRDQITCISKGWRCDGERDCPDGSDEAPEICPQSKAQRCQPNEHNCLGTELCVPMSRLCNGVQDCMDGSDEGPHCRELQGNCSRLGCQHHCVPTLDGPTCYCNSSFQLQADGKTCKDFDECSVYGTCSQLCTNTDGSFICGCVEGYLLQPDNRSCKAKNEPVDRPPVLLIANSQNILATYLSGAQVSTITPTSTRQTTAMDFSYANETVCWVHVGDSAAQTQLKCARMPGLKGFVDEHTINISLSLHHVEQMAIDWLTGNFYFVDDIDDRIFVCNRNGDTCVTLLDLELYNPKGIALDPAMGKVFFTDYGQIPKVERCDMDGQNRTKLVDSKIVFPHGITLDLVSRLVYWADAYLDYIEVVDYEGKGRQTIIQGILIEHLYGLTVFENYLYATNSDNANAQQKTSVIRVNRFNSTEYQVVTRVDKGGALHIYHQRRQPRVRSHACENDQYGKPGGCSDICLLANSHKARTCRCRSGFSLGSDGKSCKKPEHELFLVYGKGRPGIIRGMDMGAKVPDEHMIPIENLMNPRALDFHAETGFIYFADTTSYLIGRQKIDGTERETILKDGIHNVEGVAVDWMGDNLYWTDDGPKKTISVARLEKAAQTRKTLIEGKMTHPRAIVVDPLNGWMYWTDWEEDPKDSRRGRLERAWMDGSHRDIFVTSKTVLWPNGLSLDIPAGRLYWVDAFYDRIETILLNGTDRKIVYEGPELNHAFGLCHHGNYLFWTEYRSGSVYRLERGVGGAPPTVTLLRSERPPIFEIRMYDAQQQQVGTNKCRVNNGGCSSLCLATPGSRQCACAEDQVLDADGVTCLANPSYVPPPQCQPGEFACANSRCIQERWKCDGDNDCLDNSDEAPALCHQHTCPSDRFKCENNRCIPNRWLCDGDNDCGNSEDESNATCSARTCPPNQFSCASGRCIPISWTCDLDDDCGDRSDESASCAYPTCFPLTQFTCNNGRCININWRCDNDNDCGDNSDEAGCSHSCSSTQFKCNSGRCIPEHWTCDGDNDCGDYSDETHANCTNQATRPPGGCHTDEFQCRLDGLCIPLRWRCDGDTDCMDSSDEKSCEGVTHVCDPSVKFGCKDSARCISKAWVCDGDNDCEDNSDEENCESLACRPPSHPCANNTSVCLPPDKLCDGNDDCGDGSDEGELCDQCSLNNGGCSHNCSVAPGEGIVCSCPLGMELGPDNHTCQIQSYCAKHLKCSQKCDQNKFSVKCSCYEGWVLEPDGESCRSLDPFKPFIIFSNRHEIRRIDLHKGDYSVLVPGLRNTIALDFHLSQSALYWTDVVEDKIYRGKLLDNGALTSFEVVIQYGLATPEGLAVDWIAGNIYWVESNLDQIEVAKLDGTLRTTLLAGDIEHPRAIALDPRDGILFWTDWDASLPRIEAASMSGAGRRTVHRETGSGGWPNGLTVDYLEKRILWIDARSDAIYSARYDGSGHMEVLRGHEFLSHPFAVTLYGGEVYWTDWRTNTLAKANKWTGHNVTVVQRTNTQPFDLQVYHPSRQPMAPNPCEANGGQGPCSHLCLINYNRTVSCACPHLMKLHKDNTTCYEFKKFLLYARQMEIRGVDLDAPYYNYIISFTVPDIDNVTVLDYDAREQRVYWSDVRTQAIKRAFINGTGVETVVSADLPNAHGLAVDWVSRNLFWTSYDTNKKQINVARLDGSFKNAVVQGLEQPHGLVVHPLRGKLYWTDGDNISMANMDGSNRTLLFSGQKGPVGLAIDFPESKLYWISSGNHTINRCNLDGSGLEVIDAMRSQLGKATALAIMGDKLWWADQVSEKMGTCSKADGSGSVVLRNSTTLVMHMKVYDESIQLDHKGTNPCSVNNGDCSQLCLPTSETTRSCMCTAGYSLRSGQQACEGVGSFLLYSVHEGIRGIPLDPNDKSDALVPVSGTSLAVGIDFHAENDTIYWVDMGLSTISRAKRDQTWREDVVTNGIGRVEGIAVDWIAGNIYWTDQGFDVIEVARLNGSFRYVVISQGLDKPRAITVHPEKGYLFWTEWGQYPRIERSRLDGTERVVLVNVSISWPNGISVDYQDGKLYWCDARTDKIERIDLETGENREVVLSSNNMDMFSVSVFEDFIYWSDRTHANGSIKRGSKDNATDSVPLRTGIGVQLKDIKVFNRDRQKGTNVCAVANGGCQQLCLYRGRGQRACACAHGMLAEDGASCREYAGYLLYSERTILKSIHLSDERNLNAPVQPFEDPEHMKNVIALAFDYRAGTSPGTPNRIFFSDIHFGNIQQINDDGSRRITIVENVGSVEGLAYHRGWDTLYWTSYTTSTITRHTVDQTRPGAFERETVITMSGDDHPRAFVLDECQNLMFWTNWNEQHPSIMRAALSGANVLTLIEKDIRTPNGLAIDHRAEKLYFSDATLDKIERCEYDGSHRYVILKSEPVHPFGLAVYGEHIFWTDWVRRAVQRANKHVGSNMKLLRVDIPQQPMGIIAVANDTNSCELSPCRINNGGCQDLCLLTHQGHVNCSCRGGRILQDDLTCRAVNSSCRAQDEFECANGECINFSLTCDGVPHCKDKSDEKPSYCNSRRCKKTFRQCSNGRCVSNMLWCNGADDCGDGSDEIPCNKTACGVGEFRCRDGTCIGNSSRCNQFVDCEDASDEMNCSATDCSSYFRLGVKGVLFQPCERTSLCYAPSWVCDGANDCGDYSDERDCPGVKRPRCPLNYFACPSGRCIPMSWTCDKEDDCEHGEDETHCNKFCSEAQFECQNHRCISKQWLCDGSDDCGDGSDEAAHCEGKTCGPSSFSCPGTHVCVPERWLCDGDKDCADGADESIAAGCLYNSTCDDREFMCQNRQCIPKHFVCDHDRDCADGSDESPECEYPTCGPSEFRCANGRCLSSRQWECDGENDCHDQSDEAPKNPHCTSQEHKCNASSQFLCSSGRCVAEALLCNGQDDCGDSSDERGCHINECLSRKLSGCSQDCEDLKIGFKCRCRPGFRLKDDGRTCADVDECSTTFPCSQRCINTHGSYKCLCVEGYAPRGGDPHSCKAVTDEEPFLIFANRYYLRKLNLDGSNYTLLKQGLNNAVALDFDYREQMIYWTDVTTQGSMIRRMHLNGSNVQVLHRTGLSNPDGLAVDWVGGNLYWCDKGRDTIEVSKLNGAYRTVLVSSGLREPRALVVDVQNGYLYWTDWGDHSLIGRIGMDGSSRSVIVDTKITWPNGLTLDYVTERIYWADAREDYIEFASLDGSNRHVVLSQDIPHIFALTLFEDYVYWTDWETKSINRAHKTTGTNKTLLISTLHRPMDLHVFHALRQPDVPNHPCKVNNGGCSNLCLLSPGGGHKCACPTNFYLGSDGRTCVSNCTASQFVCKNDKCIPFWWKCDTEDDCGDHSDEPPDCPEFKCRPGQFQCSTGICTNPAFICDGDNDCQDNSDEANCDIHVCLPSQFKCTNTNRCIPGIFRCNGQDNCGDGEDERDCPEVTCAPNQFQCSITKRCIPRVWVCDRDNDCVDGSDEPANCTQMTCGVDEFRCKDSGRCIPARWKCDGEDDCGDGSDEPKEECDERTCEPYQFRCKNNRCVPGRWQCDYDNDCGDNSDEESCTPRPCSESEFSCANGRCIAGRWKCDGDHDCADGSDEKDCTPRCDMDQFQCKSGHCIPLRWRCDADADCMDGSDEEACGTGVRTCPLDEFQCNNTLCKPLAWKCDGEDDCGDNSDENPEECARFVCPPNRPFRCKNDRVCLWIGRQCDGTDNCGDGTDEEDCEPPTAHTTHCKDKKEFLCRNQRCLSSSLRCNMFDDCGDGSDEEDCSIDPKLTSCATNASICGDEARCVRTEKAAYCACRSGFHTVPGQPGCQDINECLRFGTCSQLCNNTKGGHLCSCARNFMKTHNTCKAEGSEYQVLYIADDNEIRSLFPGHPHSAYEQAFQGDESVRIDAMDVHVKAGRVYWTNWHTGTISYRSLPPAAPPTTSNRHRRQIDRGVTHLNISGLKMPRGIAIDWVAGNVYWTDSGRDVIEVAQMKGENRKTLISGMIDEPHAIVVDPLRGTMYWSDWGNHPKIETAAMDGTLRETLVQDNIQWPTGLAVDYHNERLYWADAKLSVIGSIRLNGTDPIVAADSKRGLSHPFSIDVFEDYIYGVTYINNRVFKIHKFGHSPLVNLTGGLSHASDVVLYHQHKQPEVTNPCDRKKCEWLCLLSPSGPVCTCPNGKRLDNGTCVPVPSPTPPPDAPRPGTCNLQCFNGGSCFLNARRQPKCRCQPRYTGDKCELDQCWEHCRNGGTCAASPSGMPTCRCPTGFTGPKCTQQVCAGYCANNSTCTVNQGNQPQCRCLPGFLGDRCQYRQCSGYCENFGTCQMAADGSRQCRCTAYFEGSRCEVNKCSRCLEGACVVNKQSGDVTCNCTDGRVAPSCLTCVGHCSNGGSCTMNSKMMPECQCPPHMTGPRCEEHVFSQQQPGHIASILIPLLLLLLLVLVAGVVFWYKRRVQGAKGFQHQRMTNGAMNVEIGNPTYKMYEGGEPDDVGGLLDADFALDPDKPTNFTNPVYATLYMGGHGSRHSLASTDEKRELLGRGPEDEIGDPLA

Fold change [1]: 32 fold
Kd [2]: 1770 nM
Substance: 14-1B R76E PAI-1 (from UniProt P05121 24-402)

Reference: US20220372111A1
